Substrate in the data set “purified protein”: Nc1ncnc2c1ncn2[C@@H]1O[C@H](COP(=O)(O)OP(=O)(O)OP(=O)(O)O)[C@@H](O)[C@H]1O
The data set can be described thus: purified protein. Type of data set: biochemical, Homo sapiens. The note with it: 20 mM glucose, 10 mM MgCl2, 10 mM CaCl2, 150 mM NaCl, 25 mM Tris pH 7.5, room temperature.

Substrate in data set [1]: Nc1ncnc2c1ncn2[C@@H]1O[C@H](COP(=O)(O)OP(=O)(O)O)[C@@H](O)[C@H]1O
Briefly: malachite green phosphate release assay. Type of data set: biochemical, Mus musculus. The note with it: 25 mM Tris, 150 mM NaCl, 10 mM MgCl2, 10 mM CaCl2, pH 7.5, room temperature. An excerpt:
(§1) malachite green phosphate release assay on CD39L2 (ENTPD6)

Substrate in data set [2]: Nc1ncnc2c1ncn2[C@@H]1O[C@H](COP(=O)(O)OP(=O)(O)OP(=O)(O)O)[C@@H](O)[C@H]1O
Briefly: malachite green phosphate release assay. The class given is biochemical, Mus musculus. The note with it: 25 mM Tris, 150 mM NaCl, 10 mM MgCl2, 10 mM CaCl2, pH 7.5, room temperature.
Text: as §1

We go through two proteins from PMC3154929, “Phosphatase-Coupled Universal Kinase Assay and Kinetics for First-Order-Rate Coupling Reaction” (PLoS ONE, 2011).

B1: human glucokinase (GCK) (Homo sapiens) (protein)
chain: VEQILAEFQLQEEDLKKVMRRMQKEMDRGLRLETHEEASVKMLPTYVRSTPEGSEVGDFLSLDLGGTNFRVMLVKVGEGEEGQWSVKTKHQMYSIPEDAMTGTAEMLFDYISECISDFLDKHQMKHKKLPLGFTFSFPVRHEDIDKGILLNWTKGFKASGAEGNNVVGLLRDAIKRRGDFEMDVVAMVNDTVATMISCYYEDHQCEVGMIVGTGCNACYMEEMQNVELVEGDEGRMCVNTEWGAFGDSGELDEFLLEYDRLVDESSANPGQQLYEKLIGGKYMGELVRLVLLRLVDENLLFHGEASEQLRTRGAFETRFVSQVESDTGDRKQIYNILSTLGLRPSTTDCDIVRRACESVSTRAAHMCSAGLAGVINRMRESRSEDVMRITVGVDGSVYKLHPSFKERFHASVRRLTPSCEITFIESEEGSGRGAALVSAVACKKACMLGQ
notes: V16 to Q465, N-terminal 6xHis tag, expressed in E. coli
By Km is commonly meant the concentration of substrate that gives half-maximal velocity. In the case of B1, in the data set “purified protein”, the Michaelis constant (Km) came out at 3550 µM.

B2: CD39L2 (ENTPD6) (Mus musculus) (protein)
chain: MRKIPNHGTLRMTKVAYPLGLCVGLFIYVAYIKWHRASAAQAFFTIAGAASGARWTQQAFSSPGSAARGHEVFYGIMFDAGSTGTRIHVFQFARPPGETPTLTHETFKALKPGLSAYADDVEKSAQGIQELLNVAKQHIPYDFWKATPLVLKATAGLRLLPGEKAQKLLQKVKEVFKASPFLVGDDCVSIMNGTDEGVSAWITVNFLTGSLKTPGSSSVGMLDLGGGSTQITFLPRVEGTLQASPPGHLTALQMFNRTYKLYSYSYLGLGLMSARLAILGGVEGKPAENDKELVSPCLSPRFRGEWEHAEVTYRISGQKAVGLYELCASRVSEVLRNKVHRTEEAQHVDFYAFSYYYDLAASFGLIDAEKGGSLVVGDFEIAAKYVCRTLETQPPSSPFACMDLTYISLLLHEFGFPGDKVLKLARKIDNVETSWALGAIFHYIDSLKRQKVPAL
notes: recombinant, R&D Systems
The term Vmax denotes the rate approached at saturating substrate. The term kcat denotes the maximal rate divided by the concentration of active sites. As usually defined, the kcat/Km is the second-order rate constant that governs catalysis at low substrate concentration. Consider B2, for which, in data set [1], the Km turned out to be 1050 µM, the Vmax is 49.1 µmol/min/mg, the kcat came to 38.5 s⁻¹ and the kcat/Km was determined as 36600 M⁻¹ s⁻¹. Further, in data set [2], the Km stood at 1140 µM, the Vmax was 0.928 µmol/min/mg, the kcat was determined as 0.617 s⁻¹ and the kcat/Km came out at 727 M⁻¹ s⁻¹.
